Laboratory results from article PMC3144408 (The Journal of Cell Biology, 2011).
Ends that are not written are not given here.

Tests used:
MDA-MB-231 cells = experiment: Colocalization of internalized β1-integrin with endogenous p120RasGAP; assay type: cell-based, human; conditions: integrin trafficking 45 min in the presence of primaquine; Pearson's correlation coefficient, n = 27 cells
[1] = molecular target: T1, Rab21 (residues 15–225), recombinant, as used in the affinity and competition measurements (human, UniProt Q9UL25 15-225); experiment: fluorescence polarisation
T1 sequence (looked up): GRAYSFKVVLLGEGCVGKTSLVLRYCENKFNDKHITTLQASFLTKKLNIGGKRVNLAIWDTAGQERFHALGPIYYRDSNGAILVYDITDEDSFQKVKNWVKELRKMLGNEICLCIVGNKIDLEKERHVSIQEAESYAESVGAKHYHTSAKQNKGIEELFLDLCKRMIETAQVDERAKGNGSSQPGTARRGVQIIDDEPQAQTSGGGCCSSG

[2] = molecular target: T2, p120RasGAP GAP domain R789A, recombinant, as used in fluorescence polarisation (human, UniProt P20936 714-1047, R789A); experiment: fluorescence polarisation
T2 sequence (looked up): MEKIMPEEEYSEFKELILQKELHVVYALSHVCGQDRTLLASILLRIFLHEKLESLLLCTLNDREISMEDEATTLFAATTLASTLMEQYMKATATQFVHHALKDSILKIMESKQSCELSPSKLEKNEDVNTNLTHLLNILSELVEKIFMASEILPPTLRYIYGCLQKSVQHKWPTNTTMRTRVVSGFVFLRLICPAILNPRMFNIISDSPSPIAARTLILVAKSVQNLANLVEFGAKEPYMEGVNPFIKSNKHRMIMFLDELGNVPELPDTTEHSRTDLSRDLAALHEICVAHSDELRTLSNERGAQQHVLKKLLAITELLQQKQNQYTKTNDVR

[3] = molecular target: T3, GST-p120RasGAP GAP domain (p120 GAP WT, residues 714–1047) (human, UniProt P20936 714-1047); experiment: pull-down
T3 sequence (looked up): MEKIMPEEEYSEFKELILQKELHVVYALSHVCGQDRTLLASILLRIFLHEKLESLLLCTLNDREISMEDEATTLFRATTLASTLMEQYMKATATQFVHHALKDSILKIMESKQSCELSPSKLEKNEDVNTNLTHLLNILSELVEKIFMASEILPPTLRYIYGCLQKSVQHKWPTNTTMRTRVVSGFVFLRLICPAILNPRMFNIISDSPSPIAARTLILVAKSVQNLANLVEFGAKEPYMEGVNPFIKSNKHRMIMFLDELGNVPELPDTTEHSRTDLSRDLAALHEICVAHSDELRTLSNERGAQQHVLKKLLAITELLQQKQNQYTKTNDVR

`COc1cc(NC(C)CCCN)c2ncccc2c1` (stereo not shown) [primaquine] was tested, and the “overlap (colocalization) of internalized β1-integrins with p120RasGAP” value (MDA-MB-231 cells) was “significantly increased the overlap of integrins with p120RasGAP”.

With WKLGFFKRKYEKM (also: EDANS fluorophore coupled, end not given here) [EDANS-conjugated α2-integrin cytoplasmic domain peptide (α2-cons, wild type)] the Kd [1] was 28 µM and the binding result [2] was “binds”.

WKIGFFKRPLKKKMEKRPLKKKMEK (also: biotinylated, end not given here) [biotinylated α1-integrin cytoplasmic domain peptide]: binds [3].
